B1: KNOP1 (protein, UniProt Q1ED39 1-458, looked up)
Lysine-rich nucleolar protein …: MITKTHKVDLGLPEKKKKKKVVKEPETRYSVLNNDDYFADVSPLRATSPSKSVAHGQAPEMPLVKKKKKKKKGVSTLCEEHVEPETTLPARRTEKSPSLRKQVFGHLEFLSGEKKNKKSPLAMSHASGVKTSPDPRQGEEETRVGKKLKKHKKEKKGAQDPTAFSVQDPWFCEAREARDVGDTCSVGKKDEEQAALGQKRKRKSPREHNGKVKKKKKIHQEGDALPGHSKPSRSMESSPRKGSKKKPVKVEAPEYIPISDDPKASAKKKMKSKKKVEQPVIEEPALKRKKKKKRKESGVAGDPWKEETDTDLEVVLEKKGNMDEAHIDQVRRKALQEEIDRESGKTEASETRKWTGTQFGQWDTAGFENEDQKLKFLRLMGGFKNLSPSFSRPASTIARPNMALGKKAADSLQQNLQRDYDRAMSWKYSRGAGLGFSTAPNKIFYIDRNASKSVKLED
B2: NPAT (protein, UniProt Q14207 1-1427, looked up)
Protein NPAT: MLLPSDVARLVLGYLQQENLISTCQTFILESSDLKEYAEHCTDEGFIPACLLSLFGKNLTTILNEYVAMKTKETSNNVPAIMSSLWKKLDHTLSQIRSMQSSPRFAGSQRARTRTGIAEIKRQRKLASQTAPASAELLTLPYLSGQFTTPPSTGTQVTRPSGQISDPSRSYFVVVNHSQSQDTVTTGEALNVIPGAQEKKAHASLMSPGRRKSESQRKSTTLSGPHSTIRNFQDPNAFAVEKQMVIENAREKILSNKSLQEKLAENINKFLTSDNNIAQVPKQTDNNPTEPETSIDEFLGLPSEIHMSEEAIQDILEQTESDPAFQALFDLFDYGKTKNNKNISQSISSQPMESNPSIVLADETNLAVKGSFETEESDGQSGQPAFCTSYQNDDPLNALKNSNNHDVLRQEDQENFSQISTSIQKKAFKTAVPTEQKCDIDITFESVPNLNDFNQRGNSNAECNPHCAELYTNQMSTETEMAIGIEKNSLSSNVPSESQLQPDQPDIPITSFVSLGCEANNENLILSGKSSQLLSQDTSLTGKPSKKSQFCENSNDTVKLKINFHGSKSSDSSEVHKSKIEINVLEPVMSQLSNCQDNSCLQSEILPVSVESSHLNVSGQVEIHLGDSLSSTKQPSNDSASVELNHTENEAQASKSENSQEPSSSVKEENTIFLSLGGNANCEKVALTPPEGTPVENSHSLPPESVCSSVGDSHPESQNTDDKPSSNNSAEIDASNIVSLKVIISDDPFVSSDTELTSAVSSINGENLPTIILSSPTKSPTKNAELVKCLSSEETVGAVVYAEVGDSASMEQSLLTFKSEDSAVNNTQNEDGIAFSANVTPCVSKDGGYIQLMPATSTAFGNSNNILIATCVTDPTALGTSVSQSNVVVLPGNSAPMTAQPLPPQLQTPPRSNSVFAVNQAVSPNFSQGSAIIIASPVQPVLQGMVGMIPVSVVGQNGNNFSTPPRQVLHMPLTAPVCNRSIPQFPVPPKSQKAQGLRNKPCIGKQVNNLVDSSGHSVGCHAQKTEVSDKSIATDLGKKSEETTVPFPEESIVPAAKPCHRRVLCFDSTTAPVANTQGPNHKMVSQNKERNAVSFPNLDSPNVSSTLKPPSNNAIKREKEKPPLPKILSKSESAISRHTTIRETQSEKKVSPTEIVLESFHKATANKENELCSDVERQKNPENSKLSIGQQNGGLRSEKSIASLQEMTKKQGTSSNNKNVLSVGTAVKDLKQEQTKSASSLITTEMLQDIQRHSSVSRLADSSDLPVPRTPGSGAGEKHKEEPIDIIKAPSSRRFSEDSSTSKVMVPPVTPDLPACSPASETGSENSVNMAAHTLMILSRAAISRTTSATPLKDNTQQFRASSRSTTKKRKIEELDERERNSRPSSKNLTNSSIPMKKKKIKKKKLPSSFPAGMDVDKFLLSLHYDE
B3: PDAP1 (protein, UniProt Q13442 1-181, looked up)
28 kDa heat- and acid-stable …: MPKGGRKGGHKGRARQYTSPEEIDAQLQAEKQKAREEEEQKEGGDGAAGDPKKEKKSLDSDESEDEEDDYQQKRKGVEGLIDIENPNRVAQTTKKVTQLDLDGPKELSRREREEIEKQKAKERYMKMHLAGKTEQAKADLARLAIIRKQREEAARKKEEERKAKDDATLSGKRMQSLSLNK
B4: MFAP1 (protein, UniProt P55081 2-439, looked up)
Microfibrillar-associated …: SVPSALMKQPPIQSTAGAVPVRNEKGEISMEKVKVKRYVSGKRPDYAPMESSDEEDEEFQFIKKAKEQEAEPEEQEEDSSSDPRLRRLQNRISEDVEERLARHRKIVEPEVVGESDSEVEGDAWRMEREDSSEEEEEEIDDEEIERRRGMMRQRAQERKNEEMEVMEVEDEGRSGEESESESEYEEYTDSEDEMEPRLKPVFIRKKDRVTVQEREAEALKQKELEQEAKRMAEERRKYTLKIVEEETKKELEENKRSLAALDALNTDDENDEEEYEAWKVRELKRIKRDREDREALEKEKAEIERMRNLTEEERRAELRANGKVITNKAVKGKYKFLQKYYHRGAFFMDEDEEVYKRDFSAPTLEDHFNKTILPKVMQVKNFGRSGRTKYTHLVDQDTTSFDSAWGQESAQNTKFFKQKAAGVRDVFERPSAKKRKTT
B5: MSANTD2 (protein, UniProt Q6P1R3 1-559, looked up)
Myb/SANT-like DNA-binding …: MAAPCGSELPANSPLKIPKMEVLSPASPGGLSDGNPSLSDPSTPRGASPLGPGSAAGSGAAASGGLGLGLGGRSAASSSVSFSPGGGGGGAAAAAAAACRGMSWTPAETNALIAVWGNERLVEARYQQLEGAGTVFGSKAPGPAMYERVSRALAELGYERTPSQCRERIKTLRRCYSRVKEHGVGKRKSSYTFEQLEQVFGQGGWDAQPCQPVLINSSGLYQELESDGSTMEDYSQEDWGNHSQDLHGYPTDQELDEIPVTKRTLKIKQESSEEAQKRDIMQNIVQILESVQLKWELFQSWTDFSRLHLSNKLAIFGIGYNTRWKEDIRYHYAEISSQVPLGKRLREYFNSEKPEGRIIMTRVQKMNWKNVYYKFLEITISEARCLELHMEIDWIPIAHSKPTGGNVVQYLLPGGIPKSPGLYAIGYEECIERPLSPHMEQSSLDPGKEGRVDLETLSAQASLQVEIEPTRIIYCYLGIAEVRTLQQCLFLHFQANTKTFSKDWVGINGFLSQNCIVDPGVSPKSIYIKFVEVERDFLSAGSLVECLEKAIGYPLKFNN

What follows are molecules tested on BirA*-FLAG-GATAD1 variants in Flp-In-293 cells (assay: BioID proximity labelling of full-length GATAD1 variants (SILAC)). Details: GATAD1 WT vs S102P, forward experiment (label swap performed, sign inverted against the H/L ratio), log2 of normalized H/L ratio, significant proteins only.
Assay type: cell-based, human
From the text: The GATAD1 gene variants were ordered in a pTwist ENTR Kozak vector from Twist Bioscience. The genes were then transferred to a pDEST_pcDNA5_BirA_FLAG_Nterm vector[97] using the Gateway Clonase II system (Thermo Fisher Scientific). The resulting vectors, pEXPR_GATAD1-WT_N-term_BirA_FLAG, pEXPR_GATAD1-S102P_N-term_BirA_FLAG, pEXPR_GATAD1-S102D_N-term_BirA_FLAG, and pEXPR_GATAD1-S102A_N-term_BirA_FLAG, were used to generate tetracycline-inducible stable Flp-In^TM-293 T-REx cells. A 6-well plate was co-transfected with 0.5 µg of the pEXPR plasmid and 1 µg of the pOG44 Flp-recombinase expression vector (Thermo Fisher Scientific) using 4.5 µg of PEI (Polysciences) as a transfection reagent. The following day, the cells were trypsinized and transferred to a 10 cm dish containing DMEM supplemented with 10% FCS and 200 µg/ml hygromycin B (Invivogen) for selection. The cells were cultured for approximately 18 days with media exchange every 3 days until visible colonies were observed. After around 18 days, the colonies were trypsinized and transferred to another 10 cm dish for further characterization and experiments.
Stable Flp-In^TM-293 cell lines expressing GATAD1 variants were cultured using SILAC light (Lys0, Arg0) and SILAC heavy (Lys8, Arg10) media, as explained in the cell culture section. After full labeling, cells were split into 15 cm dishes and were treated with 1 μg/mL tetracycline for 24 h to induce the expression of GATAD1. After the induction period, cells were incubated with 50 μM biotin overnight for proximity biotinylation. As a control, wild-type GATAD1 cells, without biotin or tetracycline addition, were used. Samples were multiplexed, as shown in Supplementary Fig. 41A with both forward and reverse label swap (n = 2). Cells were then lysed in lysis buffer (50 mM Tris-HCl pH 7.5, 150 mM NaCl, 1% Triton X-100, 1 mM EDTA, 1 mM EGTA, 0.1% SDS) with freshly added protease inhibitors and 1% sodium deoxycholate. To digest the excess DNA, 1 μl of Benzonase was added, and the samples were incubated for 20 min at 37 °C. Biotinylated proteins were enriched for 3 h at 4 °C using streptavidin-sepharose beads (GE Cat# 17-5113-01). Beads were pre-washed twice with 0.01% BSA and twice with lysis buffer. After enrichment, the beads were washed one time with lysis buffer, two times with washing buffer (50 mM HEPES-KOH pH 8.0, 100 mM KCl, 10% glycerol, 2 mM EDTA, 0.1% NP-40), and six times with 50 mM ammonium bicarbonate. Beads were resuspended in ammonium bicarbonate, and an on-bead protein digest with 1 μg of trypsin followed overnight. The next day, the digested proteins were transferred to a fresh tube and were incubated with 10 mM DTT for 30 min at 37 °C and with 55 mM iodoacetamide for 20 min at 37 °C in the dark. Samples were desalted with StageTips.
Peptides were separated using reversed-phase liquid chromatography (EASY nLC II 1200, Thermo Fisher Scientific) with self-made C18 microcolumns (20 cm long) packed with ReproSil-Pur C18-AQ 1.9 μm resin (Dr. Maisch, cat# r119.aq.0001). The chromatography system was coupled online to the electrospray ion source (Proxeon) of an Orbitrap Exploris 480 mass spectrometer (Thermo Fisher Scientific). The mobile phase consisted of buffer A (0.1% formic acid and 5% acetonitrile) and buffer B (0.1% formic acid and 80% acetonitrile). Peptides were eluted using a gradient with increasing concentrations of buffer B over 110 minutes, at a flow rate of 250 nl/min. Mass spectrometry data was acquired in data-dependent mode with settings for one full scan (resolution: 60,000; m/z range: 350–1600; normalized AGC target: 300%; maximum injection time: 10 ms), followed by top 20 MS/MS scans using higher-energy collisional dissociation (resolution: 15,000; m/z range: 200–2000; normalized AGC target: 100%; maximum injection time: 120 ms; isolation width: 1.3 m/z; normalized collision energy: 28%).
Raw files were analyzed with MaxQuant, version 2.0.3.0. […]
In the case of B1, the Log2_Ratio.H.L.normalized.WT_S102P_forward is reported as 1.624.
With B2 the Log2_Ratio.H.L.normalized.WT_S102P_forward was 1.209.
Molecule B3 has a Log2_Ratio.H.L.normalized.WT_S102P_forward of 1.555.
B4 was tested, and the Log2_Ratio.H.L.normalized.WT_S102P_forward was 1.854.
B5 was tested, and the Log2_Ratio.H.L.normalized.WT_S102P_forward was 1.423.

Same assay, conditions: GATAD1 WT vs S102P, forward experiment, normalized H/L ratio, significant proteins only
With B1 the Ratio.H.L.normalized.WT_S102P_forward was 0.3245.
With B2 the Ratio.H.L.normalized.WT_S102P_forward was 0.4326.
Work on B3 yielded a Ratio.H.L.normalized.WT_S102P_forward of 0.3404.
For B4, the Ratio.H.L.normalized.WT_S102P_forward was 0.2766.
Work on B5 yielded a Ratio.H.L.normalized.WT_S102P_forward of 0.373.

Same assay, conditions: GATAD1 WT vs S102P, reverse experiment, log2 of normalized H/L ratio, significant proteins only
B1 gave a Log2_Ratio.H.L.normalized.WT_S102P_reverse of 1.083.
B2 was tested, and the Log2_Ratio.H.L.normalized.WT_S102P_reverse was 1.214.
For B3, the Log2_Ratio.H.L.normalized.WT_S102P_reverse was 1.001.
B4 was tested, and the Log2_Ratio.H.L.normalized.WT_S102P_reverse was 1.161.
Molecule B5 has a Log2_Ratio.H.L.normalized.WT_S102P_reverse of 1.156.

Same assay, conditions: GATAD1 WT vs S102P, reverse experiment, normalized H/L ratio, significant proteins only
B1 showed a Ratio.H.L.normalized.WT_S102P_reverse of 2.1181.
With B2 the Ratio.H.L.normalized.WT_S102P_reverse was 2.3205.
For B3, the Ratio.H.L.normalized.WT_S102P_reverse was 2.0014.
With B4 the Ratio.H.L.normalized.WT_S102P_reverse was 2.2368.
B5 showed a Ratio.H.L.normalized.WT_S102P_reverse of 2.2282.

From PMC11009412, “Pathogenic mutations of human phosphorylation sites affect protein–protein interactions” (Nature Communications, 2024)
